Assays:
[1] = target: Fcγ receptors on monocytes (FcγRI and RII) (human); test: FACS on human monocytes, antibody 10 µg/ml
[2] = target: Fcγ receptors on granulocytes (FcγRII and RIII) (human); test: FACS on human granulocytes, antibody 10 µg/ml
[3] = target: human complement C3 (from human pooled serum) (human) (UniProt P01024); test: C3 ELISA, antibody coated, human pooled serum added

For “HuMab 002 Fc variant IgG4v1 (S228P; L235E) (antibody)”, the % monocytes binding antibody [1] was 14.5%, the % granulocytes binding antibody [2] was 1.6% and the Bmax (OD405 at 10 µg/ml) [3] was 0.104 OD405.
“human IgG4 (CLB, the Netherlands), negative control (antibody)” showed a % monocytes binding antibody [1] of 9.4%.
Work on “HuMab 002 Fc variant IgG1v2 (L234A; L235A) (antibody)” yielded a Bmax (OD405 at 10 µg/ml) [3] of 0.133 OD405.

Source: patent publication USRE43568
